Reference: the nanobody polyreactivity screen of Harvey et al. (2022)

Test: yeast display, Sf9 membrane polyspecificity reagent, FACS + sequencing; frameworks hold sequencing errors
Procedure, shortened: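 Sorting gates, low and high (top ~1%), were placed on anti-HA fluorescence to track expression and on streptavidin fluorescence to track reagent binding. A clone's polyreactivity label is taken from the gate it came out of. The reagent was 10% biotinylated, detergent-solubilized Sf9 membrane, applied for 1 hour at 4 °C to galactose-induced yeast display cells.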

For “QVQLVESGGGLVQAGGSLRLSCPASGSTLVYNDMGWYRQAPGKEREFVAAIRSNDGSTYYADSVKGRFTISRDNAKNTVYLQMNSLKPEDTAVYYCNKDVWDGYDWPEFDYWGQGTQVTVSS”, which “polyreactivity (PSR sort gate)” value is on record?
The value was “low polyreactivity”.

For “QVQLVESGGGLVQAGGSLRLSCPASGSTQHYYVKAWYRQAQGKERELVAAITWSGVSTYYADSVKGRFTISRDNAKNTVYLQMNSLKPEDTAVYYCAKRIFTSARLNYWGKGTQVTVSS”, which “polyreactivity (PSR sort gate)” value is on record?
The value was “high polyreactivity”.

For “QVQLVESGGGLVQAGGSLRLSCSASGFIFGTNTMGWYRQAPGKEWELVAAITSVGSTNYADSVKGRFTISRDNAKNTVYLQMNSLKPEDTAVYYCPATLYYQYGGDYWGQGTQVTVSS”, which “polyreactivity (PSR sort gate)” value is on record?
The value was “low polyreactivity”.

Which “polyreactivity (PSR sort gate)” value does the source give for “QVQLVESGGGLVQAGGSLRLSCSASGFIFLDYAMGLYRQAPGKERELVAAISSRGARTYYADSVKGRFTISRDNAKNTVYLQMNSLKPEDTAVYYCAARGPHDRYGYWGQGNQVTVSS” here?
The value was “high polyreactivity”.

Which “polyreactivity (PSR sort gate)” value does the source give for “QVQLVESGGGLVQAGGSLRLSCSASGFTFSWYAMGWYRQAPGKDRELVAAINADGGTTYYADSVKGRFTISRDNAKNTVYLQMNSLKPEDTAVYYCADELSVDKYDYWGQGTQVTVSS” here?
The value was “low polyreactivity”.

Which “polyreactivity (PSR sort gate)” value does the source give for “QVQLVESGGGLVQAGGSLRLSCSASGFTFYVNAMGWYRQAPGKERELVAAITDDGDSTYYADSVKGRFTISRDNAKNTVYLQMNSLKPEDTAVYYCKTVYGPDLDGTEYDYWGQGTQVTVSS” here?
Its value is “low polyreactivity”.

Which “polyreactivity (PSR sort gate)” value does the source give for “QVQLVESGGGLVQAGGSLRLSCSASGIIYKSYAMGWYRQAPGKERELVAAISGGGDTYYADSVKGRFTISRDNAKNTVYLQMNSLKPEDTAVYYCNTDGSQGTIIAIFVKYDYWGQGTQVTVSS” here?
The value was “low polyreactivity”.

For “QVQLVESGGGLVQAGGSLRLSCSASGITFKRYAMGWYRQAPGTERELVAAITISACSTYYADSVKGRFTNSRDIAKNTVYLQMNSLKPEVTAVYYCAAVSYGSWYYYWGQGTHVTVSS”, which “polyreactivity (PSR sort gate)” value is on record?
The value was “high polyreactivity”.

Which “polyreactivity (PSR sort gate)” value does the source give for “QVQLVESGGGLVQAGGSLRLSCSASGITFTSYAMGWYRQAPGKERELVASIDSDDSTNYADSVKGRFTISLDNAKNTVYLQMNSLKPEDTAVYYCNADYLTVSWSIPEHVTVRLMYYWGQGTQVTVSS” here?
Its value is “low polyreactivity”.

For “QVQLVESGGGLVQAGGSLRLSCSASGITFYRYVMGWYRQAPGKERELVAAISRGGGSTYYADSVKGRFTISRDNAKNTVYLQMNSLKPEDTAVYYCAARAWVQGGIGGQSWFDYWGQGTQVTVSS”, which “polyreactivity (PSR sort gate)” value is on record?
The value was “high polyreactivity”.

For “QVQLVESGGGLVQAGGSLRLSCSASGLIFSSYAMGWYRPAPGKERELVAAISRGGSTNYADSVKGRFTISRDNAKNTVYLQMNSLKPEDTAVYYCNDYSWVNRYDYWGQGTQVTVSA”, which “polyreactivity (PSR sort gate)” value is on record?
Its value is “high polyreactivity”.

With “QVQLVESGGGLVQAGGSLRLSCSASGLIFYDYDMGWYRQAPGKERELVAAISNDASTYYADSVKGRFTISRDNGKNTVYFQMNSLKPEDTAVYYCAAEPYVFGLSSKPFWYNYWGQGTQVTVSS” as the sequence, how does the “polyreactivity (PSR sort gate)” value read?
Its value is “low polyreactivity”.

For “QVQLVESGGGLVQAGGSLRLSCSASGRIFDKYTMGWYRQAPGKERELVATITRGGVSTYYADSVKGRFTISRDNAKNTVYLQMTSLKPEDTAVYYCNAVWRLRVRYGYWGQGTQVTVSS”, which “polyreactivity (PSR sort gate)” value is on record?
The value was “high polyreactivity”.

Which “polyreactivity (PSR sort gate)” value does the source give for “QVQLVESGGGLVQAGGSLRLSCSASGRIFSLYAMGWYRQAPGKESELVAAITWSSGSTYYADSVKGRFTISRDNAKNTVYLQMNSLKPEDTAVYYCDARVFTLLGYSYEYWGEGTQVTVSS” here?
Its value is “low polyreactivity”.

For “QVQLVESGGGLVQAGGSLRLSCSASGRIFVDNALGWYRQAPGKERELVATITSTGSTNYADSEKGRFTISRDNGMNTFYLQMNSLKPEDTAFYYCNADGIMQDYDYWGQVTQVTVSS”, which “polyreactivity (PSR sort gate)” value is on record?
The value was “low polyreactivity”.

Which “polyreactivity (PSR sort gate)” value does the source give for “QVQLVESGGGLVQAGGSLRLSCSASGRILRQYAMGWSRQAPGKERELVAAITSSGGSTYYADSVKGRFTISRDNAKNTVYLQMNSLKPEDTAVYYCNARLRGAKYDYLGQGTQVTVSS” here?
Its value is “high polyreactivity”.

With “QVQLVESGGGLVQAGGSLRLSCSASGRTFLGYAMGWYRQPPGKERELVAAISWDGTSTYYADSVKGRFTISRDNAKNNVYLQMNSLKTEDTAVYYCAAQYSYRMDYWGQGTQVTVSS” as the sequence, how does the “polyreactivity (PSR sort gate)” value read?
The value was “low polyreactivity”.

Which “polyreactivity (PSR sort gate)” value does the source give for “QVQLVESGGGLVQAGGSLRLSCSASGRTFRGNAMGWSRHAPGKEREMVAAITSSGGSTYYADSVKGRFTISRDNAKNNVHLKMNSLKPEDTAVYYCAKTYVVPQYDYDYWGQGTQVTVSS” here?
The value was “low polyreactivity”.

With “QVQLVESGGGLVQAGGSLRLSCSASGRTFRKYAMGWYRQPPGKESELVAAISWSGGSTYYANSVKGRFTISRDNAKNTVYLQMNSLKPEDTAVYYCAAVPVHTGSLYWGFTTGYDYWGQGTQVTVSS” as the sequence, how does the “polyreactivity (PSR sort gate)” value read?
Its value is “low polyreactivity”.

For “QVQLVESGGGLVQAGGSLRLSCSASGRTFRSNAMGWYRQAPGKEREFVAAIRSRGGSTYYADSVKGRFTISRDNAKNSVYLQMNSLKPEDTAVYYCADKHGSTSHDSWGQGTQVSVSS”, which “polyreactivity (PSR sort gate)” value is on record?
Its value is “high polyreactivity”.

For “QVQLVESGGGLVQAGGSLRLSCSASGRTFRSYTMGWYRQAPGKERELVAAINRGDRTYADSVKGRFTISRDNAKNTVYLQMNSLKPEDTAVYYCNARYYTHRYDYWGQGTQVTVSS”, which “polyreactivity (PSR sort gate)” value is on record?
The value was “high polyreactivity”.

With “QVQLVESGGGLVQAGGSLRLSCSASGRTFRWYTMGWYRQAPGKEREFVAAITWSGSSTDYADSVKGRFTISRDNAKNTVYFQMNSLKPEDTAVYYCAAENRRRRDDYWGQGTQVTVSS” as the sequence, how does the “polyreactivity (PSR sort gate)” value read?
The value was “high polyreactivity”.

For “QVQLVESGGGLVQAGGSLRLSCSASGRTFSVYAMGSYRQAPGKERELVAGITSGGSTNYADSVKGRFTISRDNAKNTVYLQMNSLKPEDTAVYYCDAENVYAGFGFVSIVDYWVQGTQVTVSS”, which “polyreactivity (PSR sort gate)” value is on record?
The value was “low polyreactivity”.

For “QVQLVESGGGLVQAGGSLRLSCSASGRTFYHYTMGRYIQAPGKERELVAAITSGGSTYYADSVKGRFPISRDNAKNTVYLQMNSLKPEDTAVYYCARVRPLYHYSRYDYWGQGTQVTVSS”, which “polyreactivity (PSR sort gate)” value is on record?
The value was “high polyreactivity”.

For “QVQLVESGGGLVQAGGSLRLSCSASGRTFYRNAMGWYRQSPGKESEFVAVISVSGGSTYYADSVKGRFTISRDNAKNTVYLQMNSLKPEDTAVYYCAADEYYTFSCFELRRMDYWGQGTQVTVSS”, which “polyreactivity (PSR sort gate)” value is on record?
Its value is “low polyreactivity”.

With “QVQLVESGGGLVQAGGSLRLSCSASGRTLTRYTMGWYRKAPGKERELVAGITRSGGSTYYADSVNGRFTISRDNAKNTVYLKMNSLKPEDTAVYYCAVKQRDKFAGGRNDYWGQGTQVTVSS” as the sequence, how does the “polyreactivity (PSR sort gate)” value read?
Its value is “high polyreactivity”.

Which “polyreactivity (PSR sort gate)” value does the source give for “QVQLVESGGGLVQAGGSLRLSCSASGSIFFKYAMGWYRQAPGKERELVASITSRGGTTYYADSVKGRFTISRDNAKNTVYLQMNSLKPEDTAVYYCAALRRSSFGYWGQGTQVTVSS” here?
Its value is “high polyreactivity”.

With “QVQLVESGGGLVQAGGSLRLSCSASGSIFNYYAMGWYRQPPGKERELVAAISYRTGSTYYADSVKGRFTISRDNSKNTVYLQMNSLKPEDTSVYYCAADTRYGYGYWGQGTQVTVSS” as the sequence, how does the “polyreactivity (PSR sort gate)” value read?
Its value is “high polyreactivity”.

With “QVQLVESGGGLVQAGGSLRLSCSASGSIFPYYSMGWYRQAPGQERQLVAAISYSGGRTRYADSVKGRFTISRDNAKNTVYLQMNSLKPEDTAVYYCAVVDRHQPYGRQLDYWGQGTQVTVSS” as the sequence, how does the “polyreactivity (PSR sort gate)” value read?
Its value is “low polyreactivity”.

With “QVQLVESGGGLVQAGGSLRLSCSASGSIFRGYTMGLYRQAPGKERELVAGITLRGVSTYYADSVKGRFTISRDNAKNTVYVQMNSLKPEDTAVYYGAVDYGRAVQGDSITYDFNYWGQGTQVTVSS” as the sequence, how does the “polyreactivity (PSR sort gate)” value read?
Its value is “low polyreactivity”.

For “QVQLVESGGGLVQAGGSLRLSCSASGSIFRRYAMGWYRQAPGKVRELVAVITTDGSTYYADSVKGRFTISRDNAKNTVYLQMHSLKPEDTAVYYCAAEDYVIGYSGYDYWGQGTQVTVSS”, which “polyreactivity (PSR sort gate)” value is on record?
Its value is “low polyreactivity”.

For “QVQLVESGGGLVQAGGSLRLSCSASGSIFSENTMGGYRQAPGKKRELVADITSGGSTNYADSVKGRFTISRDNAKNTVYLQMNSLKPEDTAVYYCAADYNGEYDYWGQGTQVTVSS”, which “polyreactivity (PSR sort gate)” value is on record?
The value was “low polyreactivity”.

Which “polyreactivity (PSR sort gate)” value does the source give for “QVQLVESGGGLVQAGGSLRLSCSASGSIIVSYTMGWYRQAPGKERELVAAISGGGASTYYADSVKGRFTISRDNAKNTVYLQMNSLKPEDTAVYYCNADGYYDMDYCGQGTQVTVSS” here?
Its value is “low polyreactivity”.

Which “polyreactivity (PSR sort gate)” value does the source give for “QVQLVESGGGLVQAGGSLRLSCSASGSILSAYDMGWYRQATGKERELVAAIDSSGGSTYYADSVKGRFTISRDNAKNTVYLQMNSLKPEDTAVYYCAATSLAGYYKFDYWGQGSQVTVSS” here?
Its value is “low polyreactivity”.

Which “polyreactivity (PSR sort gate)” value does the source give for “QVQLVESGGGLVQAGGSLRLSCSASGSTFDVYAMGRYRQAPGKERELVAAISRSGGSTYYADSVKGRFTISRDNAKNTVYLQMNSLKPEDTAVYYCAAEVGIVDYDYWGQGTQVTVSS” here?
Its value is “low polyreactivity”.

Which “polyreactivity (PSR sort gate)” value does the source give for “QVQLVESGGGLVQAGGSLRLSCSASGSTFFIYAMGWYRQAPWKERELVAAIRSGGTYYADSVKGRFTISRDNAKITVYLQMKSLKPEDTAVYYCAARTRGFRYYYWGQGTQVTVSS” here?
The value was “high polyreactivity”.

Which “polyreactivity (PSR sort gate)” value does the source give for “QVQLVESGGGLVQAGGSLRLSCSASGSTFFWNAMGWYRQAPGKESEFVAAISSSSGSTYYADSVKGRFTISRDNAKNTVYLQMNSLKPEDTAVYYCAARPWGNVFDSAVSYDYWGQGTQVTVSS” here?
Its value is “low polyreactivity”.

For “QVQLVESGGGLVQAGGSLRLSCSASGSTFNVNAMGWYRQAPGKERELVAAIRTSGGSTYYADSVKGRFTISRDNAKNTVYLQMNSLKQEDTAVYYCNARVGSSSSRYYYWGQGTQVTVSS”, which “polyreactivity (PSR sort gate)” value is on record?
Its value is “low polyreactivity”.

Which “polyreactivity (PSR sort gate)” value does the source give for “QVQLVESGGGLVQAGGSLRLSCSASGSTFRIYAMGWYRQAPGKERELVAAISWSSGSTYYADSVKGRFTISRDNAKKSVYLQMNSLKPEDTAVYYCATYARRSGYYYWGQGSQVTVSS” here?
The value was “high polyreactivity”.

Which “polyreactivity (PSR sort gate)” value does the source give for “QVQLVESGGGLVQAGGSLRLSCSASGSTFVTNVIGWYRQAPGKERELVAAISYSGGNTYYEDSVKGRFTISRDNAKNTVYLQMNSLKPEDTAVYYCAASYKPFKKMGYWGQGTQVTVSS” here?
Its value is “high polyreactivity”.

Which “polyreactivity (PSR sort gate)” value does the source give for “QVQLVESGGGLVQAGGSLRLSCSASGSTFYVYAMGWYRQAPGKERELVAAITDSGGSTYADSVKGRFTISRDNAKNTVYLQMNSLKPEDTAVYADSTYNWYYYYWGQGTQVTVSS” here?
The value was “low polyreactivity”.

Which “polyreactivity (PSR sort gate)” value does the source give for “QVQLVESGGGLVQAGGSLRLSCSPSGSIFVSYTMGWYRQAPGKERELVAAISSGGSTYYADSVKGRFTITRDNAKNTVYLQMNSLKPEDTAVYYCARRLTREYDYWGQGTQVTVSS” here?
The value was “low polyreactivity”.

For “QVQLVESGGGLVQAGGSLRLSCTASGIIFGTYAMGLYRQAPGKERELVAAISSSGVSTYYADSVKGRFTISRDNAKNTVYLQMNSLKPEDTAVYYCAAPLHYGYYYWGQGTQVTVSS”, which “polyreactivity (PSR sort gate)” value is on record?
Its value is “high polyreactivity”.
